According to US20240190999A1:

Target: human 4-1BB on primary human CD8 T cells (human) (UniProt Q07011)
Assay: cell-based or functional assay

Chain of human 4-1BB on primary human CD8 T cells (human) (Q07011 24-255 limits assumed): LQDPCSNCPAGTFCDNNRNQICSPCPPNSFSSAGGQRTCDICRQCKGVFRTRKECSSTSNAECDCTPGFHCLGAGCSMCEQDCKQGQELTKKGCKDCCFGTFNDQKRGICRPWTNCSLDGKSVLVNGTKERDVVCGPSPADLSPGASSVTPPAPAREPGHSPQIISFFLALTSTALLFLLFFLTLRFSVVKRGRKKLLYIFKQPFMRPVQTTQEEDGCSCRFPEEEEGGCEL

Substance	EC50, IFNγ production by primary human CD8 T cells, Fc-mediated cross-linking	EC50, IFNγ production by primary human CD8 T cells, antibody cross-linked via anti-Fc	EC50, IFNγ production by primary human CD8 T cells, antibody soluble	EC50, IFNγ production by primary human CD8 T cells, cross-linked via coated anti-Fc	EC50, IFNγ production by primary human CD8 T cells, without Fc-cross-linking
Anti-4-1BB mAb MOR-7480 (antibody)	0.42 nM	0.21 nM	–	–	–
Anti-4-1BB mAb 20H4.9 (antibody)	–	0.02 nM	0.93 nM	0.04 nM	0.97 nM
